Results taken from paper PMC3766608, “Thermal Stability of Glucokinases in Thermoanaerobacter tengcongensis” (BioMed Research International, 2013).

Assays:
Assay type in all cases: biochemical, Caldanaerobacter subterraneus
[1] = substrate: Nc1ncnc2c1ncn2[C@@H]1O[C@H](COP(=O)(O)OP(=O)(O)O)[C@@H](O)[C@H]1O; test: purified protein; details: glucose as co-substrate, Mg2+, Tris-HCl (pH optimum 8.0, T opt 80 °C)
[2] = substrate: Nc1ncnc2c1ncn2[C@@H]1O[C@H](COP(=O)(O)OP(=O)(O)OP(=O)(O)O)[C@@H](O)[C@H]1O; test: purified protein; details: glucose as co-substrate, Mg2+, Tris-HCl pH 8.0, 75 °C
[3] = substrate: Nc1ncnc2c1ncn2[C@@H]1O[C@H](COP(=O)(O)OP(=O)(O)OP(=O)(O)O)[C@@H](O)[C@H]1O; test: coupled enzyme assay; details: Mg2+, Tris-HCl, sugar co-substrate not stated for this constant (pH optimum 7.5, T opt 70 °C)
Description: coupled enzyme assay on TTE2418 (glu/man-NacK)

B1: TTE1961 (ADP-GLK) (Caldanaerobacter subterraneus subsp. tengcongensis MB4) (protein)
chain: MRIGVDLGGTNIAVGLVEEDGKIIATGSRPTKPERGYEAIARDIAELSFELLQRMGISVKDVKSMGIGVPGVADNEKGIVIRAVNLFWTKVPLAKEIRKYIDLPIYMENDANVAALAEATFGAGRGSKSSVTITLGTGVGSGFILDGKIYSGAHHFAPEIGHMVIGDNGIRCNCGKIGCFETYASATALIREGKKAAKRNPNTLILKFANGDIEGITAKNVIDAAKQYDEEALKIFEEYVKYLAVGIVNIINLFDPEVIILGGGVANAGDFLLKPLKKEVAENILFKELPYADIRKAELGNDAGIIGAAILS
notes: recombinant, His-tagged
Work on B1 yielded a Km [1] of 900 µM.

B2: TTE0090 (ATP-GLK) (Caldanaerobacter subterraneus subsp. tengcongensis MB4) (protein)
chain: MKKFLCGVDLGGTKISTGIVDENGNIIKSIKIPTMAEKGPDVVIERIEESIYQVLKDTGLEMSNLKGIGIGSPGPLNAKKGIVISPPNLPHWSNVPIVEILSKRLGIEVRLENDANAAAIGEHLFGSGRGVDNFVYITVSTGIGGGVIIEGKLYSGENSNAAEIGHHTINFDGPRCNCGNYGCFEAYASGTAIARFAREGIEKGIKTKIKELAGEGEVKAEHVFEAAKLGDEFAKELVEKEAFYLGVGIANIMAFYNPRKIAIGGGVSAQWDMLYEKMMETVRKKALKPNAEVCEVVKAQLGENIGVLGAAALLL
notes: recombinant, His-tagged
With B2 the Km [2] was 2600 µM and the Vmax [2] was 100/ND.

B3: TTE2418 (glu/man-NacK) (Caldanaerobacter subterraneus subsp. tengcongensis MB4) (protein)
chain: MKVIGVDIGGTKILGGLIDERGNLLEETLVYTKAHLGREKILENLFIAIDKLIDKDVKGIGIGSAGRINFKEGIVEYATDNLPGWTGCNLKQLLEDRYKIPVIADNDVNAAVIGEIWQGAGRGYKDIVMIAIGTGVGGAIVYNGEVIRGGSWSAGEIGHMILYPKGRQCNCGQRGCLEQYVSGTAIARTYSEVSKEKKIAGAEEVFLLAEKGDKMALEIVNDFVNSLSIAILSLKNLLDPEIFIIGGGVIGAKRVWWDKLKKTLENRASITPAQLENKATMVGAAKLIIDYLSKNN
notes: recombinant
In the case of B3, the Km [3] is reported as 1900 µM and the Vmax [3] is reported as 51/ND.
